Paper PMC8630788

How the values were obtained:
[1] = biological target: optimized bait-PAR-Grb2, RFP-fused (UniProt P62993); experiment: subcellular micropatterning (bait-prey copatterning, TIRF microscopy); competition in live HeLa cells: bait-PAR-Grb2-RFP and Gab1-GFP on anti-HA patterns, cyclo(YpVNFΦrpPRR) added to the cells (100 μM over time; dose-response); bait-normalized contrast set between 0 and 100%
[2] = biological target: optimized bait-PAR-Grb2, RFP-fused (UniProt P62993); experiment: subcellular micropatterning (bait-prey copatterning, TIRF microscopy); competition in live HeLa cells: bait-PAR-Grb2-RFP and GFP-fused SOS1 on anti-HA patterns, cyclo(YpVNFΦrpPRR) added to the cells (100 μM over time; dose-response); bait-normalized contrast set between 0 and 100%
[3] = biological target: optimized bait-PAR-Grb2, GFP-fused (with inserted flexible linker sequences between fluorophore and Grb2) (UniProt P62993); experiment: TIR-FRAP on bait micropatterns; live HeLa cells co-transfected with bait-PAR-Grb2 and prey on anti-HA patterns; EGF (170 nM) for at least 5 min before FRAP; single patterns bleached for 500 ms; bi-exponential, diffusion-uncoupled two-component fit
[4] = biological target: optimized bait-PAR-Grb2, GFP-fused (with inserted flexible linker sequences between fluorophore and Grb2) (UniProt P62993); experiment: subcellular micropatterning (bait-prey copatterning, TIRF microscopy); live HeLa cells co-expressing bait-PAR-Grb2 and fluorescent prey on anti-HA antibody patterned COP substrate; bait-normalized prey contrast; after EGF stimulation (170 nM, 10 min)
[5] = biological target: optimized bait-PAR-Grb2, GFP-fused (with inserted flexible linker sequences between fluorophore and Grb2) (UniProt P62993); experiment: subcellular micropatterning (bait-prey copatterning, TIRF microscopy); live HeLa cells co-expressing bait-PAR-Grb2 and fluorescent prey on anti-HA antibody patterned COP substrate; bait-normalized prey contrast; basal conditions, before EGF
[6] = biological target: optimized bait-PAR-Grb2, GFP-fused (with inserted flexible linker sequences between fluorophore and Grb2) (UniProt P62993); experiment: as above; remark: listed apart in the source
[7] = biological target: optimized bait-PAR-Grb2, RFP-fused, P62993; experiment: TIR-FRAP on bait micropatterns; live HeLa cells co-transfected with bait-PAR-Grb2 and prey on anti-HA patterns; EGF (170 nM) for at least 5 min before FRAP; single patterns bleached for 500 ms; bi-exponential, diffusion-uncoupled two-component fit; details: remark: other sources report otherwise
[8] = biological target: optimized bait-PAR-Grb2, RFP-fused, P62993; experiment: subcellular micropatterning (bait-prey copatterning, TIRF microscopy); live HeLa cells co-expressing bait-PAR-Grb2 and fluorescent prey on anti-HA antibody patterned COP substrate; bait-normalized prey contrast; after EGF stimulation (170 nM, 10 min); details: remark: other sources report otherwise
[9] = biological target: optimized bait-PAR-Grb2, RFP-fused, P62993; experiment: subcellular micropatterning (bait-prey copatterning, TIRF microscopy); live HeLa cells co-expressing bait-PAR-Grb2 and fluorescent prey on anti-HA antibody patterned COP substrate; bait-normalized prey contrast; basal conditions, before EGF; details: remark: other sources report otherwise
[10] = biological target: optimized bait-PAR-Grb2, RFP-fused, P62993; experiment: subcellular micropatterning (bait-prey copatterning, TIRF microscopy); live HeLa cells with bait-PAR-Grb2-RFP and GFP-fused Gab1 or SOS1 on anti-HA patterns, treated with 10 μM actinomycin D, copatterning followed over time; details: remark: other sources report otherwise

Molecule: cell-permeable cyclic peptide cyclo(YpVNFΦrpPRR)
- EC50 [1]: 68 µM
- dissociation half-life of Gab1 from Grb2 at 100 μM peptide [1]: 42 s
- maximum prey dissociation at 100 μM peptide (Gab1 from Grb2) [1]: 70 to 75%
- EC50 [2]: 63 µM
- dissociation half-life of SOS1 from Grb2 at 100 μM peptide [2]: 36 s
- maximum prey dissociation at 100 μM peptide (SOS1 from Grb2) [2]: 70 to 75%

Molecule: SHC-transforming protein 1 (Shc1), RFP-fused (from UniProt P29353 1-583) (natural protein)
- half-time of dissociation (FRAP) [3]: 10 s
- k slow (exchange rate, FRAP) [3]: 0.103 s⁻¹
- bait-normalized fluorescence contrast <c prey/bait> [4]: 0.45
- bait-normalized fluorescence contrast <c prey/bait> [5]: 0.14
- bait-normalized fluorescence contrast <c prey/bait> [6]: 0.21

B1: son of sevenless protein 1 (SOS1), GFP-fused, Q07889 1-1333 (natural protein)
chain: MQAQQLPYEFFSEENAPKWRGLLVPALKKVQGQVHPTLESNDDALQYVEELILQLLNMLCQAQPRSASDVEERVQKSFPHPIDKWAIADAQSAIEKRKRRNPLSLPVEKIHPLLKEVLGYKIDHQVSVYIVAVLEYISADILKLVGNYVRNIRHYEITKQDIKVAMCADKVLMDMFHQDVEDINILSLTDEEPSTSGEQTYYDLVKAFMAEIRQYIRELNLIIKVFREPFVSNSKLFSANDVENIFSRIVDIHELSVKLLGHIEDTVEMTDEGSPHPLVGSCFEDLAEELAFDPYESYARDILRPGFHDRFLSQLSKPGAALYLQSIGEGFKEAVQYVLPRLLLAPVYHCLHYFELLKQLEEKSEDQEDKECLKQAITALLNVQSGMEKICSKSLAKRRLSESACRFYSQQMKGKQLAIKKMNEIQKNIDGWEGKDIGQCCNEFIMEGTLTRVGAKHERHIFLFDGLMICCKSNHGQPRLPGASNAEYRLKEKFFMRKVQINDKDDTNEYKHAFEIILKDENSVIFSAKSAEEKNNWMAALISLQYRSTLERMLDVTMLQEEKEEQMRLPSADVYRFAEPDSEENIIFEENMQPKAGIPIIKAGTVIKLIERLTYHMYADPNFVRTFLTTYRSFCKPQELLSLIIERFEIPEPEPTEADRIAIENGDQPLSAELKRFRKEYIQPVQLRVLNVCRHWVEHHFYDFERDAYLLQRMEEFIGTVRGKAMKKWVESITKIIQRKKIARDNGPGHNITFQSSPPTVEWHISRPGHIETFDLLTLHPIEIARQLTLLESDLYRAVQPSELVGSVWTKEDKEINSPNLLKMIRHTTNLTLWFEKCIVETENLEERVAVVSRIIEILQVFQELNNFNGVLEVVSAMNSSPVYRLDHTFEQIPSRQKKILEEAHELSEDHYKKYLAKLRSINPPCVPFFGIYLTNILKTEEGNPEVLKRHGKELINFSKRRKVAEITGEIQQYQNQPYCLRVESDIKRFFENLNPMGNSMEKEFTDYLFNKSLEIEPRNPKPLPRFPKKYSYPLKSPGVRPSNPRPGTMRHPTPLQQEPRKISYSRIPESETESTASAPNSPRTPLTPPPASGASSTTDVCSVFDSDHSSPFHSSNDTVFIQVTLPHGPRSASVSSISLTKGTDEVPVPPPVPPRRRPESAPAESSPSKIMSKHLDSPPAIPPRQPTSKAYSPRYSISDRTSISDPPESPPLLPPREPVRTPDVFSSSPLHLQPPPLGKKSDHGNAFFPNSPSPFTPPPPQTPSPHGTRRHLPSPPLTQEVDLHSIAGPPVPPRQSTSQHIPKLPPKTYKREHTHPSMHRDGPPLLENAHSS
- half-time of dissociation (FRAP) [7]: 13 s
- k slow (exchange rate, FRAP) [7]: 0.074 s⁻¹
- bait-normalized fluorescence contrast <c prey/bait> [8]: 0.56
- bait-normalized fluorescence contrast <c prey/bait> [9]: 0.55
- dissociation half-life with 10 μM actinomycin D [10]: 84 s
- reduction of copatterning with 10 μM actinomycin D [10]: 25%
